This is an account of results in US20260151519A1 (AKTIS ONCOLOGY, published 2026).

The target in assay [1] is T1, Human Nectin-4 (human, UniProt Q96NY8 32-349, limits assumed).
T1 construct: Protein immobilised on the SPR chip; also called target protein
T1 sequence: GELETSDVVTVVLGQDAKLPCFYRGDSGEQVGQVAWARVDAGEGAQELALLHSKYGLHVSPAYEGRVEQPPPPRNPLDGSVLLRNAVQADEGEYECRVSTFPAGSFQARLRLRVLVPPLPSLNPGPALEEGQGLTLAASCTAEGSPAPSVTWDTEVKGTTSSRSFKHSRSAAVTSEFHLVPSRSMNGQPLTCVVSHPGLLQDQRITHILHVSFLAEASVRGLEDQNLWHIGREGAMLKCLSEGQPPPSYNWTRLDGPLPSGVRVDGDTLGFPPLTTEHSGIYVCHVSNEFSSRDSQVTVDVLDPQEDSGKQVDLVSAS
In words: Table 2B (DELFIA or SPR).

In assay [2] the target is T1, Human Nectin-4. Kind of assay: SPR, Biacore T200, target immobilised, 1:1 model. As for the experimental part:
Surface plasmon resonance (SPR) analyses were performed using Biacore T200 (GE Healthcare). Target protein (“ligand”) was immobilized to a CM5 Series S sensor chip (Cytiva) using amine-coupling chemistry. Running buffer was 0.05% surfactant P20 in HEPES buffered saline (HBS-P), pH 7.4 (Cytiva). Immobilization was performed at 25° C. Carboxyl groups in each flow cell were activated using a 1:1 mixture of 0.4 M 1-ethyl-3-(3-dimethylaminopropyl)-carbodiimide in water (EDC) and 0.1 M N-hydroxysuccinimide in water (NHS) for 7 minutes. The ligand was prepared in 10 mM sodium acetate pH 5 (Cytiva). Pulsatile injections were made to target a specific immobilization level. Any remaining amine-reactive esters on the chip surface were blocked with a 7-minute injection of 1 M ethanolamine, pH 8.5. Three 10-second pulses of 50 mM sodium hydroxide were then made to remove any unbound ligand. Reference cells were modified using amine coupling chemistry, omitting ligand injection.
Increase in signal (RU) is proportional to an increase in binding events between the analyte and ligand surface. The injection was then stopped, and dissociation was measured. […] Measured association (kₐ, 1/Ms⁻¹) and dissociation (kd, s⁻¹) were fit to a 1:1 binding model to calculate a dissociation equilibrium constant, KD(M) for each analyte.
A general note: SPR reads the build-up and loss of mass on a sensor chip optically.

Assay [3] has as its target T2, Human Nectin-4 expressed on cells (human, UniProt Q96NY8 32-510).
T2 construct: Endogenous on HT-1376 cells; also called endogenous Nectin-4 on HT-1376 cells; cell surface Nectin-4
T2 sequence: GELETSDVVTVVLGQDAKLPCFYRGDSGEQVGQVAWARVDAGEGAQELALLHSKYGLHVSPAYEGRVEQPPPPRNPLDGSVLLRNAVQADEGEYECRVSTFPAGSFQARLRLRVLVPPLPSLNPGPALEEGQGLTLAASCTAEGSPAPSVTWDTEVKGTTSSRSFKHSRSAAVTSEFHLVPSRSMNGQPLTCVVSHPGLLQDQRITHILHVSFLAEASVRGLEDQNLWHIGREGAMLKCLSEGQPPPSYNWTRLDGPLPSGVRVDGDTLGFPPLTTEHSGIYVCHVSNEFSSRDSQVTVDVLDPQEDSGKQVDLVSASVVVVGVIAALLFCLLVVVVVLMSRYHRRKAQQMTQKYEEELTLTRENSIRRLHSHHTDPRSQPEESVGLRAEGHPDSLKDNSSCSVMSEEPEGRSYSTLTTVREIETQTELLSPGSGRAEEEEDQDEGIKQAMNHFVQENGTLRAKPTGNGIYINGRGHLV
In words: DELFIA whole-cell competition against a europium-chelate miniprotein. As for the experimental part:
A whole cell binding assay was used to estimate the equilibrium binding affinity (KD) or binding inhibition constant (Kᵢ) of miniprotein ligands to cells expressing a target of interest. Cells were dispensed into a 384-well plate and incubated at 37° C. in 5% CO₂ overnight. The next day cells were gently washed once in assay buffer prior to addition of europium chelated ligand. […] For Kᵢ determination, a single concentration (KD equivalent concentration) of europium-chelate miniprotein was added to each well followed immediately by the addition of unconjugated competing ligand over 12 different concentrations ranging from 100 times below and above expected Kᵢ values as before. […] Cells were then washed three times at room temperature with 1×PBS followed by the addition of 2 M HCl and incubated for two h at 37° C. Following this step, 2 M NaOH and fluorescent inducer solution were added to each well and incubated for 30 minutes at room temperature according to the manufacturer's protocol (Perkin-ELMER DELFIA assay). Plates were read on an Envision plate reader and a curve-fitting model was applied to estimate KD and Kᵢ values using GraphPad Prism software.

The term Kd denotes the constant that tells how readily two partners part at equilibrium. One may read the Ki as the dissociation constant of the complex between target and ligand, obtained from inhibition or displacement. A high value points to a looser hold on the target.

Bridges are numbered along the chain shown (N, C = ends). Primed or numbered codes have the meaning given here. Where no end group is shown, it is not given here. [ ]: non-standard residue; d: D form. The star is where a group is joined. Biotin = O=C1N[C@H]2[C@H](CS[C@H]2CCCCC(=O)*)N1; hydroxy‑norleucine = hydroxy-norleucine residue; Lys(Me3) = C[N+](C)(C)CCCC[C@H](N)C(=O)O; Cit = NC(=O)NCCC[C@H](N)C(=O)O; PEG4″ = 4(ethylene glycol); Nle = CCCC[C@H](N)C(=O)O

On to {Biotin-PEG4″}-CEYDEEFFTALARLRGDDICSYIQAKFQYLPGLCIEEILDNLGCS-OH (designed binder, disulfide 1-34, 20-44) [C143], for which the values for the dissociation constant (Kd) in the assay with Human Nectin-4 [1] and with Human Nectin-4 [2] were 0.55 nM and 0.238 nM, respectively.

For {Biotin-PEG4″}-CEYDEEFFTALARLRGGDICQYIQAKFQYLPGQCIEEILDNLGCS (designed binder, disulfide 1-34, 20-44) [C149], the Kd is 0.75 nM with Human Nectin-4 [1] and 0.297 nM with Human Nectin-4 [2]. On to {Biotin-PEG4″}-CEYDEQFFTALKRLRGADICSYIQASFQYLPGLCIEEILDNLGCS (designed binder, disulfide 1-34, 20-44) [C185], for which the Kd amounted to 1 nM in the assay with Human Nectin-4 [1] and 0.371 nM in the assay with Human Nectin-4 [2]. Molecule Ac-CEYDEQFFTALKALRGGDICYYIQASFNYLPDLCIEEILDNLGC-NH2 (designed binder, disulfide 1-34, 20-44) [C112] displayed an equilibrium dissociation constant (Kd) with Human Nectin-4 [1] of 6.24 nM. Same read-out and setting: the figure for Ac-CEYDEQFFTALSSLRGGDICYYIQEQFANVPGICIEEILDNLGC (designed binder, disulfide 1-34, 20-44) [C136] is 36.5 nM; for {Biotin-PEG4″}-CEYDEEFFTALARLRGGDICYYIQA[hydroxy‑norleucine]FQYLPGLCIEEILDNLGCS-OH (designed binder, disulfide 1-34, 20-44) [C164] it is 5 nM. With {Biotin-PEG4″}-CEYDEEFFTALKRLRGGDICEYIQA[Nle]FQYLPGLCIEEILDNLGCS-OH (designed binder, disulfide 1-34, 20-44) [C199], the dissociation constant (Kd) with Human Nectin-4 [1] amounted to 3.5 nM. Still for that read-out and setting: the figure for {Biotin-PEG4″}-CEYDEEFFTALA[Cit]LRGDDICSYIQA[hydroxy‑norleucine]FQYLPGLCIEEILDNLGCS-OH (designed binder, disulfide 1-34, 20-44) [C170] is 8.8 nM. Same read-out and setting: under {Biotin-PEG4″}-CEYDEEFFTALARLRGGDICYYIQA[hydroxy‑norleucine]FQYLPGLCIEEILDNLGCS-OH (designed binder, disulfide 1-34, 20-44) [C173] stands 5 nM; under {Biotin-PEG4″}-CEYDEEFFTALA[Cit]LRGGDICEYIQAKFQYLPGLCIEEILDNLGCS-OH (designed binder, disulfide 1-34, 20-44) [C171], 2.2 nM; under {Biotin-PEG4″}-CEYDEEFFTALA[Cit]LRGGDICYYIQAKFQYLPGLCIEEILDNLGCS-OH (designed binder, disulfide 1-34, 20-44) [C163], 1.9 nM.

Molecule {Biotin-PEG4″}-CEYDEEFFTALA[Cit]LRGGDICSYIQAKFQYLPGLCIEEILDNLGCS-OH (designed binder, disulfide 1-34, 20-44) [C175] returned a Kd with Human Nectin-4 [1] of 2.3 nM. On the same count and under the same terms, the figure for {Biotin-PEG4″}-CEYDEEFFTALA[Cit]LRGDDICSYIQAKFQYLPGLCIEEILDNLGCS-OH (designed binder, disulfide 1-34, 20-44) [C172] is 1.8 nM. {Biotin-PEG4″}-CDYDEQFFTALA[Cit]LRGGDICEYIQA[Lys(Me3)]FQYLPGLCIEEILDNLGCS-OH (designed binder, disulfide 1-34, 20-44) [C259] returned a Kd with Human Nectin-4 [2] of 0.226 nM. In the assay with Human Nectin-4 [1], {Biotin-PEG4″}-CDYDEEFFTALA[Cit]LRGGDICEYIQAKFQYLPGLCIEEILDNLGCS-OH (designed binder, disulfide 1-34, 20-44) [C176] registered an equilibrium dissociation constant (Kd) of 1.3 nM. Still for that read-out and setting: the figure for Ac-CEYDEQFFTALKRLRGGDICYYISAQFNTLPDLCIEEILENLGC-OH (designed binder, disulfide 1-34, 20-44) [C100] is 4.8 nM. Still for that read-out and setting: the figure for {Biotin-PEG4″}-CEYDEQFFTALSSLRGGDICYYIQEQFANVPGICIEEILDNLGCS (designed binder, disulfide 1-34, 20-44) [C139] is 25.2 nM. For the molecule {Biotin-PEG4″}-CEYDEEFFTALARLRGADICQYIQA[Lys(Me3)]FQYLPALCIEEILDNLGCS-OH (designed binder, disulfide 1-34, 20-44) [C252], the Ki in assay [3] is 0.76 nM. Same read-out and setting: the figure for {Biotin-PEG4″}-CDYDEQFFTALKRLRGADICEYIQA[Lys(Me3)]FQYLPGECIEEILDNLGCS-OH (designed binder, disulfide 1-34, 20-44) [C257] is 0.66 nM; for {Biotin-PEG4″}-CDYDEQFFTALKRLRGGDICEYIQA[Lys(Me3)]FQYLPGECIEEILDNLGCS-OH (designed binder, disulfide 1-34, 20-44) [C255] it is 0.66 nM. For {Biotin-PEG4″}-CEYDEQFFTALARLRGADICEYIQA[Lys(Me3)]FQYLPGLCIEEILDNLGCS-OH (designed binder, disulfide 1-34, 20-44) [C262], the inhibition constant (Ki) in assay [3] was found to be 1.04 nM. In the assay with Human Nectin-4 [1], {Biotin-PEG4″}-CEYDEQFFTALARLRGGDICYYIQEQFATVPGLCIEEILDQLGCS-OH (designed binder, disulfide 1-34, 20-44) [C131] registered a dissociation constant Kd of 12.4 nM. The same measure, in the same setting: under Ac-CEYDEEFFTALKKLRGGDICYYIQQAFNYLPGICIEEILDNLGC-OH (designed binder, disulfide 1-34, 20-44) [C104] stands 3.7 nM; under Ac-CEYDEEFFTALSRLRGGDICYYIQQAFQYLPGLCIEEILDNLGC-NH2 (designed binder, disulfide 1-34, 20-44) [C132], 30.1 nM. Same read-out and setting: the figure for {Biotin-PEG4″}-CEYDEQFFTALKRLRGGDICYYISAQFNTLPDLCIEEILENLGC-OH (designed binder, disulfide 1-34, 20-44) [C103] is 6.6 nM; for {Biotin-PEG4″}-CEYDEEFFTALKKLRGGDICYYIQQAFNYLPGICIEEILDNLGC (designed binder, disulfide 1-34, 20-44) [C107] it is 3.38 nM; for Ac-CEYDEQFFTALARLRGGDICYYIQEQFATVPGLCIEEILDQLGC-NH2 (designed binder, disulfide 1-34, 20-44) [C128] it is 10.1 nM.
